The conditions of the data set: Ajellomyces capsulatus (strain G186AR / H82 / ATCC MYA-2454 / RMSCC 2432); pH 6.5; 25 °C; Urea; CD; KH2PO4 0.01 M; KCl 0.1 M; reversible: Yes; whole UniProt chain shown.

B1: Calcium-binding protein wild type, O42720 (protein)
chain: MLFSKVIAPAFILLGAASAAPGGLAPENASKRDQPSVGDAFDKYNEAVRVFTQLSSAANCDWAACLSSLSASSAACIAAVGELGLDVPLDLACAATATSSATEACKGCLW
For the protein B1, the denaturant m value was 0.84 kcal/mol/M, the “denaturant midpoint (higher = more stable)” value amounted to 3.4 M and the unfolding free energy came to 2.9 kcal/mol.

The values are drawn from FireProtDB (doi:10.1021/bi701495v).
